This note sets out measurements from paper doi:10.1101/2024.05.08.592267 (2024).

The target of the experiment is P69P4. As to the kind of experiment: BLI. (In general: BLI is a label-free optical method that tracks binding on a fibre tip over time.)

B1: biotinylated natural Ara h 2 (natural protein)
chain: RQQWELQGDRRCQSQLERANLRPCEQHLMQKIQRDEDSYGRDPYSPSQDPYSPSQDPDRRDPYSPSPYDRRGAGSSQHQERCCNELNEFENNQRCMCEALQQIMENQSDRLQGRQQEQQFKRELRNLPQQCGLRAPQRCDLEVESGGRDRY
modifications: biotin (position not given)
In general, Kd refers to the equilibrium constant for the complex coming apart. The molecule B1 displayed a Kd of 3.88 pM.
